Reference: patent US20160200782A1 (MOERAE MATRIX, published 2016)
Each block holds one binder with its values, some of them ahead of it.

Assays:
Assay in all cases: cell-based or functional assay
ErbB4(h) = ErbB4(h) (human, UniProt Q15303 676-1308, limits assumed)
Rsk1(h) = Rsk1(h) (human, UniProt Q15418 1-735, limits assumed)
MAPKAP-K2(h) = MAPKAP-K2(h) (human, UniProt P49137 46-400)
MRCKα(h) = MRCKα(h) (human, UniProt Q5VT25 1-473, limits assumed)
TAK1(h) = molecular target: T1, TAK1(h) (human, UniProt O43318 1-303, limits assumed)
T1 sequence (looked up): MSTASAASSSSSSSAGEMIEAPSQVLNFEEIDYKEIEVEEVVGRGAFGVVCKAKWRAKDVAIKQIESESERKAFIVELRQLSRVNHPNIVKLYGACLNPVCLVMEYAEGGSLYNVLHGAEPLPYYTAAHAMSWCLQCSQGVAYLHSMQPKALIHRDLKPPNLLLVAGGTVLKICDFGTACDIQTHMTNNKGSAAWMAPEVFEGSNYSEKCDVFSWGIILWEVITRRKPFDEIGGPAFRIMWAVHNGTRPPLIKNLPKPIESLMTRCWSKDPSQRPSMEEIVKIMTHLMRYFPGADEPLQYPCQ

NEK7(h) = NEK7(h) (human, UniProt Q8TDX7 1-302)
CK2(h) = CK2(h) (human)
FGFR2(h) = FGFR2(h) (human, UniProt P21802 456-770, limits assumed)
BTK(h) = BTK(h) (human, UniProt Q06187 1-659)
cKit(h) = cKit(h) (human, UniProt P10721 544-976, limits assumed)
CaMKIIγ(h) = CaMKIIγ(h) (human, UniProt Q13555 1-558, limits assumed)
CDK2/cyclinE(h) = CDK2/cyclinE(h) (human, UniProt P24941 1-298; P24941 1-298)
TBK1(h) = molecular target: T2, TBK1(h) (human, UniProt Q9UHD2 1-729, limits assumed)
T2 sequence (looked up): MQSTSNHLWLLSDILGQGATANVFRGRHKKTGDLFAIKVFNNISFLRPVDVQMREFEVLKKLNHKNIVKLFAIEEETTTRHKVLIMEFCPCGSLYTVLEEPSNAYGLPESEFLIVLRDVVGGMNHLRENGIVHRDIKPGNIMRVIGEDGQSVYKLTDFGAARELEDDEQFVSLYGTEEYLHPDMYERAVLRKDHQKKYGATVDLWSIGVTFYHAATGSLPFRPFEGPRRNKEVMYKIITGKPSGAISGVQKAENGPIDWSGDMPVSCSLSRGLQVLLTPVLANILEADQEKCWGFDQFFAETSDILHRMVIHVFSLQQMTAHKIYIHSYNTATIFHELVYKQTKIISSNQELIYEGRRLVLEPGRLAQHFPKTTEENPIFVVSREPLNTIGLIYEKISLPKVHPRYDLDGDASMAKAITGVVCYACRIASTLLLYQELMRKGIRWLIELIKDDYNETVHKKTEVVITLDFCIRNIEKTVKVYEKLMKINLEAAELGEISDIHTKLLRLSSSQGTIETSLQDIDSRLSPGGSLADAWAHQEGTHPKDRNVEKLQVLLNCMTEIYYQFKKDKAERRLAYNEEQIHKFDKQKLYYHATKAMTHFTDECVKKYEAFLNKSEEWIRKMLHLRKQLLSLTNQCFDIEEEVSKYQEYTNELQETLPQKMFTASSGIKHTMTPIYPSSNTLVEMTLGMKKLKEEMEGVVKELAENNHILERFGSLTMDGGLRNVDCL

Tie2(Y897S)(h) = Tie2(Y897S)(h) (human, UniProt Q02763 771-1124, limits assumed)
DAPK2(h) = DAPK2(h) (human, UniProt Q9UIK4 1-370, limits assumed)
CDK2/cyclinA(h) = CDK2/cyclinA(h) (human, UniProt P24941 1-298; P20248 1-432)
Plk3(h) = Plk3(h) (human, UniProt Q9H4B4 1-646, limits assumed)
NLK(h) = molecular target: T3, NLK(h) (human, UniProt Q9UBE8 1-527, limits assumed)
T3 sequence (looked up): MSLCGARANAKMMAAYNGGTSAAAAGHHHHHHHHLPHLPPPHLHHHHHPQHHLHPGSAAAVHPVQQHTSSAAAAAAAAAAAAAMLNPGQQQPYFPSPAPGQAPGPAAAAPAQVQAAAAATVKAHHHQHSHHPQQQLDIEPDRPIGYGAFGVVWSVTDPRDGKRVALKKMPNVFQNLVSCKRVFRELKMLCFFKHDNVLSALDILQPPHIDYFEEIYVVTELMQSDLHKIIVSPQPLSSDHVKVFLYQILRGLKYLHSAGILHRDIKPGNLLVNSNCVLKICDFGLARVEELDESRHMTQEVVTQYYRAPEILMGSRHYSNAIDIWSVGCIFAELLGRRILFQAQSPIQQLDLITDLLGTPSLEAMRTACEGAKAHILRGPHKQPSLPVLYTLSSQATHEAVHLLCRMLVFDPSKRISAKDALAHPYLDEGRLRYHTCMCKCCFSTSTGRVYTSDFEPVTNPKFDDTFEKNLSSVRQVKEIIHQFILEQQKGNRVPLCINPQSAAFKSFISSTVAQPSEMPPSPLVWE

Src(T341M)(h) = Src(T341M)(h) (human, UniProt P12931 1-536, limits assumed)

- % activity (ErbB4(h)): 40%
- % activity (Rsk1(h)): 46%
- % activity (MAPKAP-K2(h)): 5%
- % activity (MRCKα(h)): 104%
- % activity (TAK1(h)): 122%
- % activity (NEK7(h)): 84%
- % activity (CK2(h)): 90%
- % activity (FGFR2(h)): 14%
- % activity (BTK(h)): 102%
- % activity (cKit(h)): 53%
- % activity (CaMKIIγ(h)): 5%
- % activity (CDK2/cyclinE(h)): 94%
- % activity (TBK1(h)): 37%
- % activity (Tie2(Y897S)(h)): 83%
- % activity (DAPK2(h)): 32%
- % activity (CDK2/cyclinA(h)): 86%
- % activity (Plk3(h)): 127%
- % activity (NLK(h)): 87%
- % activity (Src(T341M)(h)): 70%
B1: MMI-0300 (peptide)
peptide: FAKLAARLYRKALARQLGVAA

- % activity (ErbB4(h)): 0%
- % activity (Rsk1(h)): 54%
- % activity (MAPKAP-K2(h)): 5%
- % activity (MRCKα(h)): 97%
- % activity (TAK1(h)): 177%
- % activity (NEK7(h)): 87%
- % activity (CK2(h)): 101%
- % activity (FGFR2(h)): 18%
- % activity (BTK(h)): 94%
- % activity (cKit(h)): 43%
- % activity (CaMKIIγ(h)): 3%
- % activity (CDK2/cyclinE(h)): 83%
- % activity (TBK1(h)): 39%
- % activity (Tie2(Y897S)(h)): 87%
- % activity (DAPK2(h)): 16%
- % activity (CDK2/cyclinA(h)): 92%
- % activity (Plk3(h)): 129%
- % activity (NLK(h)): 90%
- % activity (Src(T341M)(h)): 76%
B2: MMI-0400 (peptide)
peptide: KAFAKLAARLYRKALARQLGVAA
